Results published in PMC8111780, “NMR structural analysis of the yeast cytochrome c oxidase subunit Cox13 and its interaction with ATP” (BMC Biology, 2021).
One block for each molecule: values may come before it.

Key:
Cox13 = target: T1, Cox13 (Saccharomyces cerevisiae, UniProt P32799); assay: 1H-15N HSQC NMR titration (chemical shift perturbation, global fit); type: binding
T1 construct: 15 kDa; homodimer
T1 sequence (P32799 1-129): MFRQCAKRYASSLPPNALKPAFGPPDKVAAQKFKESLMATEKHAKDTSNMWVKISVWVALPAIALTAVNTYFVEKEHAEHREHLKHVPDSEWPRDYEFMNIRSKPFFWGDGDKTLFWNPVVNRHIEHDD

Cox13Δ-CytcO = system: T2, Cox13Δ-CytcO; assay: oxygen consumption (Clark electrode), activity vs ATP; type: biochemical, Saccharomyces cerevisiae; conditions: tentative fit of stimulation of turnover; yeast cyt. c 50 μM, ascorbate, TMPD, 0.035% DDM, KPi; allosteric, more than one site
T2 construct: gene COX1; Complex IV lacking subunit Cox13, Flag-tag on Cox6, purified from yeast membranes in DDM; ATP site not assigned

[1] = target: Cox13Δ-CytcO: S. cerevisiae cytochrome c oxidase lacking Cox13, with a Flag-tag on Cox6 (S. cerevisiae) (UniProt P00401)
Cox13Δ-CytcO: S. cerevisiae cytochrome c oxidase lacking Cox13, with a Flag-tag on Cox6 (S. cerevisiae), sequence (P00401 whole entry, looked up, stated change not applied): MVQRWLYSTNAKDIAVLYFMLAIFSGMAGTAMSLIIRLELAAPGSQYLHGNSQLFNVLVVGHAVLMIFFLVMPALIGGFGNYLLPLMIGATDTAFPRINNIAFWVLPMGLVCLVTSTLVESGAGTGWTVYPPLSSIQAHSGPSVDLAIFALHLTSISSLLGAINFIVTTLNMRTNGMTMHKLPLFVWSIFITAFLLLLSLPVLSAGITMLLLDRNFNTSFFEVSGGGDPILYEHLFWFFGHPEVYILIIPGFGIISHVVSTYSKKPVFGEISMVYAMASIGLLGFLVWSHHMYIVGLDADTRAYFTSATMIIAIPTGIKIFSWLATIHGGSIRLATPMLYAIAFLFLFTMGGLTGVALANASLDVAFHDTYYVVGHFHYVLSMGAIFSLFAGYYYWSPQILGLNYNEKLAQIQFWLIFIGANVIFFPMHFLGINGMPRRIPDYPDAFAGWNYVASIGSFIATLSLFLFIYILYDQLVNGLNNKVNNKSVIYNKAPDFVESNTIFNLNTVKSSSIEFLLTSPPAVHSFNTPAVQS

[2] = target: wildtype S. cerevisiae cytochrome c oxidase (CytcO, Complex IV) with a 6xHis-tag on Cox13 (S. cerevisiae) (UniProt P00401)
wildtype S. cerevisiae cytochrome c oxidase (CytcO, Complex IV) with a 6xHis-tag on Cox13 (S. cerevisiae), sequence (P00401 whole entry, looked up, one chain of several): as the sequence (P00401 whole entry, looked up, stated change not applied) above

[3] = target: the molecule itself; assay: SEC; Superdex 200 10/300; 20 mM NaPi pH 6.5, 50 mM L-Arg, 50 mM L-Glu, 1 mM DTT, 3 mM DPC; Cox13-DPC complex elutes in a single peak of apparent mass 55-60 kDa

Molecule: Nc1ncnc2c1ncn2[C@@H]1O[C@H](COP(=O)(O)OP(=O)(O)O)[C@@H](O)[C@H]1O [ADP]
- Kd (Cox13): 17 ± 2 mM

Molecule: Nc1ncnc2c1ncn2[C@@H]1O[C@H](COP(=O)(O)OP(=O)(O)OP(=O)(O)O)[C@@H](O)[C@H]1O [ATP]
- Kd (Cox13Δ-CytcO): ATP binds less tight (with tentative Kd in the mM range
- Kd (Cox13): 15 ± 2 mM

- Km^1 (low Km) for cyt. c, oxygen-consumption turnover of purified Cox13Δ-CytcO against added yeast cyt. c, no ATP [1]: 0.2 µM
- Km^2 (high Km) for cyt. c, oxygen-consumption turnover of purified Cox13Δ-CytcO against added yeast cyt. c, no ATP [1]: 20 µM
- single Km for cyt. c, oxygen-consumption turnover of purified Cox13Δ-CytcO against added yeast cyt. c, with 5 mM ATP [1]: 5.8 µM
- Km^1 (low Km) for cyt. c, oxygen-consumption turnover of purified CytcO against added yeast cyt. c, no ATP [2]: 1.3 µM
- Km^2 (high Km) for cyt. c, oxygen-consumption turnover of purified CytcO against added yeast cyt. c, no ATP [2]: 20 µM
- single Km for cyt. c, oxygen-consumption turnover of purified CytcO against added yeast cyt. c, with 5 mM ATP [2]: 8.6 µM
Molecule: yeast cytochrome c (from UniProt P00044 1-109) (natural protein)

B1: Cox13 (cytochrome c oxidase subunit Cox13) from S. cerevisiae, refolded in DPC micelles (natural protein)
chain: ASSLPPNALKPAFGPPDKVAAQKFKESLMATEKHAKDTSNMWVKISVWVALPAIALTAVNTYFVEKEHAEHREHLKHVPDSEWPRDYEFMNIRSKPFFWGDGDKTLFWNPVVNRHIEHDD
notes: Cox13, cytochrome c oxidase subunit of S. cerevisiae; the gene was cloned into pET-28a; predicted mass 15 kDa; residues assigned up to I125; Isotope-labelled (15N and/or 13C) or unlabelled, depending on the experiment; also called Cox13-DPC complex; CoxVIa in mammals (homolog)
- stoichiometry N [3]: 2
